In article PMC10269845:

Target: plasminogen (UniProt P00747)
Test: SPR

plasminogen, sequence (P00747 20-810): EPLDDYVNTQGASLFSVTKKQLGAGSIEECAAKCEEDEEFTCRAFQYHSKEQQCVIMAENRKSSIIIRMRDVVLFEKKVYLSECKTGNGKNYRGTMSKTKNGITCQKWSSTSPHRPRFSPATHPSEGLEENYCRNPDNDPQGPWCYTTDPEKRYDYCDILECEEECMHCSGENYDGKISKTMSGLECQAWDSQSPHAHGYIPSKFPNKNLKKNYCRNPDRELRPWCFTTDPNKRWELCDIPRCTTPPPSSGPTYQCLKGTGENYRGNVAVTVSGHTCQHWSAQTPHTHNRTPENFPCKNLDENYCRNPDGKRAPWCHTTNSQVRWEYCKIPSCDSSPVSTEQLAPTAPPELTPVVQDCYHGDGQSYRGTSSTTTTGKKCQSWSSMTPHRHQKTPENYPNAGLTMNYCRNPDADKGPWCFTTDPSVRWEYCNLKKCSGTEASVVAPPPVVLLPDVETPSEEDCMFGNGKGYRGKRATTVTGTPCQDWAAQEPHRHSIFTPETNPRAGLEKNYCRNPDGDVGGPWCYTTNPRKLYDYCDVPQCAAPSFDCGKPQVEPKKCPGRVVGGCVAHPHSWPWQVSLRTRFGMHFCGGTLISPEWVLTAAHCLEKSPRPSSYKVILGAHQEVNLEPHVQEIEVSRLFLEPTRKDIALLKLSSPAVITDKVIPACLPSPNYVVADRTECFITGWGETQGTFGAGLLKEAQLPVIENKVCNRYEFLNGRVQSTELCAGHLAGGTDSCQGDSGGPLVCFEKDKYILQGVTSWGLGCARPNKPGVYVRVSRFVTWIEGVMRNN

“rGAPDH C-terminal mutant (K336A) (from UniProt E4QS33 1-336) (enzyme)” was tested. Which Kd did it give?
Its Kd is 600 nM.
